Publication PMC5505994 (Scientific Reports, 2017)

B1: Mycobacterium bovis thioredoxin TrxC (natural protein)
chain: MTDSEKSATIKVTDASFATDVLSSNKPVLVDFWATWCGPCKMVAPVLEEIATERATDLTVAKLDVDTNPETARNFQVVSIPTLILFKDGQPVKRIVGAKGKAALLRELSDVVPNLN
B2: alkyl hydroperoxide reductase subunit C (AhpC) from Mycobacterium bovis (BCG strain), wild type (enzyme)
chain: MPLLTIGDQFPAYQLTALIGGDLSKVDAKQPGDYFTTITSDEHPGKWRVVFFWPKDFTFVCPTEIAAFSKLNDEFEDRDAQILGVSIDSEFAHFQWRAQHNDLKTLPFPMLSDIKRELSQAAGVLNADGVADRVTFIVDPNNEIQFVSATAGSVGRNVDEVLRVLDALQSDELCACNWRKGDPTLDAGELLKASA
B3: MbAhpC with deletion of the loop residues 23 to 34 (enzyme)
chain: MPLLTIGDQFPAYQLTALIGGDFTTITSDEHPGKWRVVFFWPKDFTFVCPTEIAAFSKLNDEFEDRDAQILGVSIDSEFAHFQWRAQHNDLKTLPFPMLSDIKRELSQAAGVLNADGVADRVTFIVDPNNEIQFVSATAGSVGRNVDEVLRVLDALQSDELCACNWRKGDPTLDAGELLKASA

What was measured:
[1] = target: B2; test: NMR titration; conditions: both partners purified
[2] = target: the molecule itself; test: negative-stain electron microscopy with 2D classification
SEC = target: the molecule itself; test: SEC

| Binder | binding result [1] | stoichiometry N [2] | stoichiometry N (SEC) |
| --- | --- | --- | --- |
| B1 | binds | – | – |
| B2 | – | 12 | 2 |
| B3 | – | – | 2 |
